Values of other authors, collected in patent US20170022546.

Target: T1, KZF (Kaiso zinc finger domain, three C2H2 fingers) (UniProt Q86T24)
T1 sequence: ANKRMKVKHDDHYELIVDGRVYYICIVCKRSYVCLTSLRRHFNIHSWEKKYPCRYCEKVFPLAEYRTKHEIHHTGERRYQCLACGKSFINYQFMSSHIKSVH
Settings: 5mC; CITED ref 45; 1:1 complex

**Q.** Which Kd does the source give for “consecutive methylated CpG target (literature)” here?
**A.** 0.21 nM
